Reference: the RNAGym collection of RNA variant scans (doi:10.7554/elife.90254)

B1: LINE1-mini (parent)
chain: GGCAGAGCUCAACACAGCGUGGCAAAGUGGCUGUGGCUAGACUGCC

Variants of: B1
Assay: self-cleavage, relative activity (ratio to wild type); higher = more cleavage; in vitro, sequencing; the parent is a self-cleaving ribozyme

Going from G17A A24G to G17A A24U, the self-cleavage rises from 0.18 to 0.38.

First: U32C G40A
Second: A25U U38C
The self-cleavage of the first is lower: 0.06 for the first, 0.31 for the second.

First: A6U C46U
Second: A39C A41C
The self-cleavage of the first is higher: 0.75 for the first, 0.62 for the second.

Compared with G7C G22U, C10U C45U is higher in self-cleavage: 0.12 for the first, 0.23 for the second.

Going from G5A G40C to G7C C8A, the self-cleavage rises from 0.04 to 0.32.

First: G1U G17A
Second: A4C C45A
The self-cleavage of the first is lower: 0.1 for the first, 0.12 for the second.

Compared with A4G G17C, G40C is lower in self-cleavage: 0.5 for the first, 0.09 for the second.

Compared with A26U G40A, U9G U38A is lower in self-cleavage: 0.17 for the first, 0.06 for the second.

First: A6U G35C
Second: C3U U34A
The self-cleavage of the first is higher: 0.16 for the first, 0.06 for the second.

First: U9A U38C
Second: A4G A24C
The self-cleavage of the first is lower: 0.12 for the first, 0.25 for the second.

First: C18G G21U
Second: A4C G17U
The self-cleavage of the first is higher: 1.38 for the first, 0.08 for the second.

First: C3G C10U
Second: C3G G7U
The self-cleavage of the first is lower: 0.19 for the first, 0.22 for the second.

First: G29U C45A
Second: G19A G22U
The self-cleavage of the first is lower: 0.63 for the first, 0.99 for the second.

Going from G1C A26C to G1A A39G, the self-cleavage rises from 0.08 to 0.12.

Going from C3G U34A to G29A G36A, the self-cleavage rises from 0.08 to 0.11.

Compared with A11G U38C, G2U G22U is higher in self-cleavage: 0.03 for the first, 0.11 for the second.

Going from A14U C31A to A25C C45A, the self-cleavage rises from 0.06 to 0.23.

Going from A11C A41C to U32G U34C, the self-cleavage rises from 0.01 to 0.06.

Going from G1A G40U to U28G C42A, the self-cleavage rises from 0.1 to 0.18.

Compared with C13G G22U, G17A U34A is lower in self-cleavage: 0.18 for the first, 0.04 for the second.

First: C3A U20C
Second: G17C G36U
The self-cleavage of the first is higher: 0.19 for the first, 0.08 for the second.

First: A6C A16C
Second: A25U C45A
The self-cleavage of the first is lower: 0.1 for the first, 0.41 for the second.

Going from C8G C15A to U38C G40U, the self-cleavage falls from 0.11 to 0.1.

First: A11U U20G
Second: G1U A4C
The self-cleavage of the first is higher: 0.16 for the first, 0.06 for the second.

Compared with G5U C46A, C15U C23A is higher in self-cleavage: 0.11 for the first, 2.82 for the second.

Compared with C3G G35C, U28G U38A is higher in self-cleavage: 0.13 for the first, 0.19 for the second.

Compared with G30A G35A, C8A C42U is higher in self-cleavage: 0.12 for the first, 0.24 for the second.

First: C23G G40U
Second: C3A A24U
The self-cleavage of the first is lower: 0.14 for the first, 0.51 for the second.

Compared with A12C U32G, G27C C46A is higher in self-cleavage: 0.06 for the first, 0.71 for the second.

First: A26G U34G
Second: G22C C23U
The self-cleavage of the first is lower: 0.03 for the first, 0.64 for the second.

First: A11G C45A
Second: G33C A39U
The self-cleavage of the first is lower: 0.03 for the first, 0.05 for the second.

First: A12G G33U
Second: G22A A26U
The self-cleavage of the first is lower: 0.12 for the first, 0.76 for the second.

First: A16G G35A
Second: A6U G21C
The self-cleavage of the first is lower: 0.03 for the first, 0.52 for the second.

Compared with C18G G29A, A14C A41C is lower in self-cleavage: 1.38 for the first, 0.04 for the second.

Compared with G17U A26G, A6U A14U is higher in self-cleavage: 0.1 for the first, 0.27 for the second.

First: A11C G17C
Second: C3G
The self-cleavage of the first is lower: 0.02 for the first, 0.48 for the second.

Going from G21A U28A to G17U U28A, the self-cleavage falls from 1.94 to 0.17.

Going from U28G G35C to C8G G36C, the self-cleavage rises from 0.07 to 0.08.

Compared with U9A G22C, G40A C46U is higher in self-cleavage: 0.09 for the first, 0.14 for the second.

Compared with A4G C13A, G22A C37G is lower in self-cleavage: 0.27 for the first, 0.03 for the second.

Going from C31G G36C to G40C C46A, the self-cleavage rises from 0.04 to 0.1.

Going from A39U G40A to C10A C37A, the self-cleavage falls from 0.17 to 0.01.

First: C10U C13U
Second: C23A U43G
The self-cleavage of the first is higher: 0.06 for the first, 0.02 for the second.

Compared with G2C G27A, C3U A4G is higher in self-cleavage: 0.13 for the first, 0.31 for the second.

Compared with G1C C8A, G1U A25C is higher in self-cleavage: 0.06 for the first, 0.21 for the second.

Going from G17U C45A to A14C U32A, the self-cleavage rises from 0.05 to 0.07.

First: A24U C45G
Second: C8G C46G
The self-cleavage of the first is higher: 0.3 for the first, 0.11 for the second.

Compared with C8G C46U, A16G G19C is higher in self-cleavage: 0.09 for the first, 0.5 for the second.

Compared with G19A C46G, G22C G33C is lower in self-cleavage: 1.53 for the first, 0.06 for the second.

Compared with A25C G33U, G33U A41C is lower in self-cleavage: 0.15 for the first, 0.06 for the second.

First: C3G C8U
Second: G33A C46G
The self-cleavage of the first is higher: 0.39 for the first, 0.08 for the second.

Going from C3A A26C to G2A G40C, the self-cleavage falls from 0.44 to 0.12.

Compared with G35A C46A, A12C A25G is lower in self-cleavage: 0.11 for the first, 0.02 for the second.

Going from C13U A14U to A4G U9A, the self-cleavage rises from 0.1 to 0.21.

First: G33U C46U
Second: C37G A39G
The self-cleavage of the first is higher: 0.07 for the first, 0.02 for the second.

Going from C13A G22A to A26C A41C, the self-cleavage falls from 0.15 to 0.04.

First: U28A A39U
Second: U20A G22A
The self-cleavage of the first is lower: 0.39 for the first, 0.55 for the second.

Compared with A24G A25U, G19A G27C is lower in self-cleavage: 1.3 for the first, 0.53 for the second.

Compared with A11C G40C, G5C G7C is higher in self-cleavage: 0.04 for the first, 0.08 for the second.

Going from A41G to A4C G29A, the self-cleavage falls from 0.34 to 0.07.

Going from A6C C13U to A16U U38C, the self-cleavage falls from 0.14 to 0.04.

Compared with G7C G36A, G17A A26U is higher in self-cleavage: 0.2 for the first, 0.21 for the second.

First: U34A A39G
Second: G22C C42U
The self-cleavage of the first is lower: 0.05 for the first, 0.21 for the second.

First: C31U G44C
Second: A12G U43C
The self-cleavage of the first is higher: 0.07 for the first, 0.03 for the second.

Going from G19U G35C to A6G U32G, the self-cleavage falls from 0.09 to 0.07.

First: A6G U32A
Second: C37U G44U
The self-cleavage of the first is lower: 0.07 for the first, 0.25 for the second.

Compared with G29U G40A, C8G U9G is lower in self-cleavage: 0.15 for the first, 0.12 for the second.

Compared with C13G G44A, G7C C37A is lower in self-cleavage: 0.12 for the first, 0.09 for the second.

Compared with A16C A26C, G1U A39U is higher in self-cleavage: 0.04 for the first, 0.2 for the second.

Compared with G19U G44A, C18G G35A is lower in self-cleavage: 0.27 for the first, 0.07 for the second.

Compared with C23G U28G, C18A G21U is lower in self-cleavage: 0.89 for the first, 0.77 for the second.

First: A24G C46U
Second: A4U C13U
The self-cleavage of the first is higher: 0.93 for the first, 0.14 for the second.

First: G2U G7C
Second: G5U G17A
The self-cleavage of the first is lower: 0.04 for the first, 0.1 for the second.

First: A6U U34G
Second: G19C G21U
The self-cleavage of the first is lower: 0.28 for the first, 0.47 for the second.

Going from G1A C18U to A26G U28C, the self-cleavage rises from 0.94 to 1.18.

Compared with A6C U32G, G21C G44A is higher in self-cleavage: 0.05 for the first, 0.34 for the second.

Compared with A6G A16G, G19U G33C is lower in self-cleavage: 0.12 for the first, 0.07 for the second.

Compared with A16G G36C, G27A G35A is higher in self-cleavage: 0.05 for the first, 0.19 for the second.

First: G5C C45G
Second: A6C G33C
The self-cleavage of the first is lower: 0.05 for the first, 0.07 for the second.

Going from A4C U34G to U9G G35A, the self-cleavage rises from 0.02 to 0.11.

Going from G7A A12G to U9C G17C, the self-cleavage falls from 0.05 to 0.04.

Compared with C42G C45U, G7U G21U is higher in self-cleavage: 0.05 for the first, 0.1 for the second.

First: G27C U34G
Second: G2C U20A
The self-cleavage of the first is higher: 0.2 for the first, 0.06 for the second.

G2C U20G showed a self-cleavage of 0.05.
